Measured values as given in the supplement of paper PMC10567573.

B1: KRT71 (parent)
chain: ELRNVQDVVEDYKKRYEEEINKRT

Variants of: B1
Test: protein stability index of a GFP-peptide fusion (GPS, HEK-293T) (PSI 1-6); higher = more stable
Settings: c terminus: a fixed tail appended
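Note: lentivirally expressed fusions sorted by FACS into six bins by GFP to DsRed ratio, PSI derived from sequencing read proportions per bin multiplied by bin number.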

| Variant | protein stability index |
| --- | --- |
| ELRNVQDVVEDYKKRYEERINKRT [E19R] | 4.11 |
| ELRNVQDVVEDYKKRYEEYINKRT [E19Y] | 2.88 |
| ELRNVQDVVEDYKKRYEESINKRT [E19S] | 3.69 |
| ELRNVQDVVEDYKKRYEEVINKRT [E19V] | 3.48 |
| ELRNVQDVVEDYKKRYEEQINKRT [E19Q] | 2.54 |
| ELRNVQDVVEDYKKRYEEPINKRT [E19P] | 4.28 |
| ELRNVQDVVEDYKKRYEETINKRT [E19T] | 4.16 |
| ELRNVQDVVEDYKKRYEEGINKRT [E19G] | 3.65 |
| ELRNVQDVVEDYKKRYEEWINKRT [E19W] | 2.92 |
| ELRNVQDVVEDYKKRYEEHINKRT [E19H] | 3.73 |
| ELRNVQDVVEDYKLRYEEEINKRT [K14L] | 2.97 |
| ELRNVQDVVEDYKTRYEEEINKRT [K14T] | 3.65 |
| ELRNVQDVVEDYKVRYEEEINKRT [K14V] | 4.45 |
| ELRNVQDVVEDYKYRYEEEINKRT [K14Y] | 3.47 |
| ELRNVQDVVEDYKGRYEEEINKRT [K14G] | 4.76 |
| ELRNVQDVVEDYKQRYEEEINKRT [K14Q] | 3.49 |
| ELRNVQDVVEDYKHRYEEEINKRT [K14H] | 4.26 |
| ELRNVQDVVEDYKMRYEEEINKRT [K14M] | 3.82 |
| ELRNVQDVVEDYKARYEEEINKRT [K14A] | 3.17 |
| ELRNVQDVVEDYKCRYEEEINKRT [K14C] | 3.3 |
| ELRNVQDVVEDYKNRYEEEINKRT [K14N] | 3.58 |
| ELRNVQDVVEDYKRRYEEEINKRT [K14R] | 3.51 |
| ELRNVQDVVEDYKERYEEEINKRT [K14E] | 4.51 |
| ELRNVQDVVEDYKKRYECEINKRT [E18C] | 4.57 |

| Variant | protein stability index |
| --- | --- |
| ELRNVQDVVEDYKKRYEDEINKRT [E18D] | 3.48 |
| ELRNVQDVVEDYKKRYEAEINKRT [E18A] | 3.54 |
| ELRNVQDVVEDYKKRYEREINKRT [E18R] | 4.26 |
| ELRNVQDVVEDYKKRYENEINKRT [E18N] | 3.31 |
| ELRNVQDVVEDYKKRYESEINKRT [E18S] | 3.23 |
| ELRNVQDVVEDYKKRYEYEINKRT [E18Y] | 3.85 |
| ELRNVQDVVEDYKKRYEFEINKRT [E18F] | 3.42 |
| ELRNVQDVVEDYKKRYEKEINKRT [E18K] | 3.03 |
| ELRNVQDVVEDYKKRYEQEINKRT [E18Q] | 3.3 |
| ELRNVQDVVEDYKKRYELEINKRT [E18L] | 2.91 |
| ELRNVQDVVEDYKKRYEIEINKRT [E18I] | 3.07 |
| ELRNVQDVVEDYKKRYEGEINKRT [E18G] | 3.16 |
| ELRNVQDVVEDYKKRYETEINKRT [E18T] | 3.93 |
| ELRNVQDVVEDYKKRYEPEINKRT [E18P] | 3.98 |
| ELRNVQDVVEDYKKRYEWEINKRT [E18W] | 3.11 |
| ELRNVQDVVEDYKKRYMEEINKRT [E17M] | 3.02 |
| ELRNVQDVVEDYKKRYKEEINKRT [E17K] | 3.24 |
| ELRNVQDVVEDYKKRYTEEINKRT [E17T] | 3.45 |
| ELRNVQDVVEDYKKRYWEEINKRT [E17W] | 3.87 |
| ELRNVQDVVEDYKKRYLEEINKRT [E17L] | 4.43 |
| ELRNVQDVVEDYKKRYNEEINKRT [E17N] | 4.29 |
| ELRNVQDVVEDYKKRYFEEINKRT [E17F] | 3.93 |
| ELRNVQDVVEDYKKRYREEINKRT [E17R] | 4.12 |
| ELRNVQDVVEDYKKRYYEEINKRT [E17Y] | 3.15 |

| Variant | protein stability index |
| --- | --- |
| ELRNVQDVVEDYKKRYAEEINKRT [E17A] | 2.84 |
| ELRNVQDVVEDYKKRYCEEINKRT [E17C] | 3.24 |
| ELRNVQDVVEDYKKRYQEEINKRT [E17Q] | 3.8 |
| ELRNVQDVVEDYKKRYDEEINKRT [E17D] | 3.23 |
| ELRNVQDVVEDYKKRYVEEINKRT [E17V] | 3.93 |
| ELRNVQDVVEDYKKRYGEEINKRT [E17G] | 3.1 |
| ELRNVQDVVEDYKKRYSEEINKRT [E17S] | 3.86 |
| ELRNVQDVVEDYKKRYIEEINKRT [E17I] | 3.57 |
| ELRNVQDVVEDVKKRYEEEINKRT [Y12V] | 4.23 |
| ELRNVQDVVEDWKKRYEEEINKRT [Y12W] | 3.98 |
| ELRNVQDVVEDSKKRYEEEINKRT [Y12S] | 4.26 |
| ELRNVQDVVEDTKKRYEEEINKRT [Y12T] | 4.05 |
| ELRNVQDVVEDYKKRYEEECNKRT [I20C] | 4.07 |
| ELRNVQDVVEDYKKRYEEEWNKRT [I20W] | 3.2 |
| ELRNVQDVVEDYKKRYEEETNKRT [I20T] | 3.65 |
| ELRNVQDVVEDYKKRYEEEPNKRT [I20P] | 3.71 |
| ELRNVQDVVEDYKKRYEEERNKRT [I20R] | 3.22 |
| ELRNVQDVVEDYKKRYEEEMNKRT [I20M] | 4.12 |
| ELRNVQDVVEDYKKRYEEENNKRT [I20N] | 4 |
| ELRNVQDVVEDYKKRYEEEYNKRT [I20Y] | 3.15 |
| ELRNVQDVVEDYKKRYEEEHNKRT [I20H] | 4.07 |
| ELRNVQDVVEDYKKRYEEESNKRT [I20S] | 4.25 |
| ELRNVQDVVEDYKKRYEEEGNKRT [I20G] | 4.05 |
| ELRNVQDVVEDYKKRYEEELNKRT [I20L] | 4.32 |

| Variant | protein stability index |
| --- | --- |
| ELRNVQDVVEDYKKRYEEEANKRT [I20A] | 4.88 |
| ELRNVQDVVEDYKKRYEEEENKRT [I20E] | 3.6 |
| ELRNVQDVVEDYKKRYEEEVNKRT [I20V] | 4.2 |
| ELRNVQDVVEDYKKRYEEEQNKRT [I20Q] | 3.74 |
| ELRNVQDVVEDYKKIYEEEINKRT [R15I] | 4.28 |
| ELRNVQDVVEDYKKLYEEEINKRT [R15L] | 4.86 |
| ELRNVQDVVEDYKKAYEEEINKRT [R15A] | 4.63 |
| ELRNVQDVVEDYKKWYEEEINKRT [R15W] | 3.67 |
| ELRNVQDVVEDYKKKYEEEINKRT [R15K] | 3.22 |
| ELRNVQDVVEDYKKCYEEEINKRT [R15C] | 4.23 |
| ELRNVQDVVEDYKKSYEEEINKRT [R15S] | 3.63 |
| ELRNVQDVVEDYKKYYEEEINKRT [R15Y] | 3.43 |
| ELRNVQDVVEDYKKQYEEEINKRT [R15Q] | 4.26 |
| ELRNVQDVVEDYKKDYEEEINKRT [R15D] | 3.35 |
| ELRNVQDVVEDYKKHYEEEINKRT [R15H] | 2.8 |
| ELRNVQDVVEDYKKNYEEEINKRT [R15N] | 3.48 |
| ELRNVQDVVEDYKKMYEEEINKRT [R15M] | 4.38 |
| ELRNVQDVVEDYKKVYEEEINKRT [R15V] | 3.05 |
| ELRNVQDVVEDYKKTYEEEINKRT [R15T] | 4.68 |
| ELRNVQDVVEDYKKFYEEEINKRT [R15F] | 3.67 |
| ELRNVQDVVEDYKKPYEEEINKRT [R15P] | 4.78 |
| ELRNVQDVVEDYKKEYEEEINKRT [R15E] | 3.49 |
